Laboratory results: a protein production outcome set (Wang et al. 2014)

Assay: label from the status in PepcDB records
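Also: failed if final PepcDB status was selected cloned or expressed and not failed if soluble or beyond.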

Row | Sequence | protein production
1 | MEIFEDVVRCGGFRAAALGRGVSSSAISQSISVLEEALGIRLLNRTTRSVAPTEAGEQLLERLRPALYEIRTAVDDLNQLRERPSGTVRINAPGPAADHVLCPLTFEFMKIYPDVNVEIVSDAAIIDIVEQGFDAGVRFGNQLAQDMIAMPLGPALRYAIVASPDYLRKRGRPHSPRDLLQHDCIRRRFPGGTMVTWKFARDGDEVEITPKGRLTLSSAHQELQAALAGSGIAHLFEDYVRDDVEQGRLVELLCDWKQKLPSWYLYYPSRRHTSAAMRAFLEYIRNQRQHPDRR | failed
2 | MEIFELILLMLSAVFLSNVLSRFLPSIAVPLIQVLLGIILAIPLGDHTMDINPELFLLLFMAPILFNDGARTDKKSLWKNRKAILSLSIGLVFVTVGVLGAFIHYLIPAIPFAAAFALAAALAPTDAVAVGALAEKVRVPHKIMHILEGESLINDASGLVSFQFAVLALVTGTFSFMSAGTSFLLLSLGGIALGVVLSLLKIMLMRGLRQLGIENMTSFMLMEILLPFLIFMVAENIGVNGILAVVSGGMVHSFSYKRINPEMAQLNLLSKNTWSVIIFSLNGLVFVLLGTQLPQIMTAIWEDTGIHKSMLFLYIFGITFLLLALRFLWILFFRNYEENPHADLVSRLKNTFLYTVAGVRGTITLVSALSLPFVLGQGNAFPERDLLIFIAAGVIITTLLLANFTLPLFAAKKDVVVADHTTAIALLRDVVGQLQRYKTDENEVEMNNVLKMYNGRIFSLMEHKEVSATEKELRRLTQEWQLENTRRLVFERKIDTGVGLSLMMRLGKRLYVQTRAQKYRARMRYRQLLSHSIRDFRIVPLSFEERRKERAKLQTENNQFVVQKLNELDKNEFNPEVISLYLMNFERALGSGKHKKETDNEELQTTIDLASQIERETIQHYFEKGTITRKEMKVYRDNLLAIEASFQLEF | failed
3 | MEIFILIGLIVLNGLFAMSEIAIVTARKSRLTALAHAGSSTAKAALKLAEDPTQFLSTVQIGITSIGILNGIFGESILAEPLSLWLQTFGLSPDVTNIFSTVLVVIIVTYVSIVIGELVPKRIGQVSAESIACIMAKPMVFLAIATKPFVWMLSGSTHALMRLMGFSHRLDDNVTQEDIQAMLQEGSSAGVIEHNEHAMVKNVFRLDERTISSLMVPRSDIVFLDLNLPLDANLRTVMQSPHSRFPVCRNNVDDMVGIISAKQLLSESIAGERLELVDLVKNCNFVPNSLSGMELLEHFRTTGSQMVFVVDEYGDLKGLVTLQDMMDALTGEFFQEDVNDQMVIKREDGSLLLDGLIPIFDLKDALGIKQLPNEEDGRYQTLNGFLMYELGKIPQTTDIVEVAGWRLEIMDMDGKRVDKVLAQKLPDAEDSEESIFVDL | failed
4 | MEIGIIGTGNIGGTLARKLIAAGHQVRVANSKGIHGVQSFADEIGATAVDVYGAVKGADAIILSIPLPALASLPNGFFDDLPETVPLIDTSNYYPGLRDPLIPEIDDGMTESVWVSQQLSHPVIKAFNNILAWSLAELGTPKGSASRLAIAVAGDNATLKQIVMNLVDDTGFDAIDAGSLEESWRQQPSTPAYCCDYDAETMKKGLTAAVRGEAASKRDRLPELFGKLGANPTHEDIVAMNRSLNPLEHHHHHH | not failed
5 | MEIGVVGKPNVGKSTFFSAATLVDVEIANYPFTTIEANVGVTYAITDHPCKELGCSPNPQNYEYRNGLALIPVKMVDVAGLVPGAHEGRGLGNKFLDDLRMASALIHVVDATGKTDPEGQPTDYHDPVEDIEFLEREIDYWIYGILSKGWDKFAKRIKLQKIKLESAIAEHLSGIGVNENDVWEAMHKLNLPEDPTKWSQDDLLAFASEIRRVNKPMVIAANKADAASDEQIKRLVREEEKRGYIVIPTSAAAELTLRKAAKAGFIEYIPGASEFKVLRDMSEKQKRALMVIKEKVLDRFGSTGVQEVINRVVFDLLKLIPVYPVHDENKLTDQFGNVLPHVFLMKKGSTPRDLAFKVHTDLGKGFLYAINARTKRRVGEDYELQFNDIVKIVSVTR | not failed
6 | MEIKPVSPEIVSDKLTKVILVFYKTISEIIYPLAILGYCISVILIITGSCFHSRTVMKMGIVNFCVITLVLISYFFMPSFIGILKSIETILR | failed
7 | MEIKRILVSRTDKIGDLVLSIPSFFMLKKMYPNAELVVIVRKYNVDIVKNLPYIDRIVIIDEYSKAELLEKIAYFKADVFIALYNDSYIASLARASKAKIKIGPISKLSSFFTYNKGVLQKRSLSLKNEGQYNLDLVTKLDRKRFAILEHHHHHH | failed
8 | MEILHFSPSSSISTIIHRPRRKIMALRDSIKTQMNLITTESVSSFRFCPCGRRHFIGAAMTSMPFLPISPSHASTSTEDLKRLRPPKPDWYEEFFAWSMNSEVESYEKEVSDYKMKLFDNLVGKAEKVLEIGIGTGPNFKYYTDIPNVSVIGIDPNAKMESYARKSATEAGLKPEEFTFVHALGESIPLEDASVDAVVGTLVLCSVTDVTQTLKEIKRILRPGGIYIFIEHVAAEDGTFLRLVQTVLDPLQQVVADGCHLTRHTGESILEARFNGGADVKKTSLSRLAYISSHVYGVAYN | failed
9 | MEILSLGEKIKARRKELNMTLKDLAGDRITPGQISLVESGKSNPSMDLLEYLAGALNTSVEYLMESEETQAEKICVYYENTAEAYMLNDELMEAEQYLEKAMYYAENYKISYRKARTLYLYGCINMNKNELGVAQQFFLSSNVLFIKLNHYEDIINTFINLGKITLNLKAYNSSCSYFEQAERVSRDNDIGNDFLIGEIYYYMSLVYFKMNNSNKTIKYCLMAKEKFAELENKKEYARTLLILSKEYSKSGDVDNAIKYSKKALKAFKENDNMFAVADIENELGKLFYEFENIEESFIHLNKAKEIRKKTKGHEFIETLCNICENYIKLKDTENSQKVLNEIKENIDGNNVFDILKYYMLKYRISILNRSLKEAENILLRALQYAENMELEKEAAEFSVIIGKYYIDNGDDVEAAKYLNSGIEKFKKIGVLKDL | failed
10 | MEILTCIKQVPGTTSVEVDETTGVLKRDGVDSKMNPYDLYALETALRIKEDKKANLKVLSMGPPQAKKVIEESFMMGADEGALISDRRFGGADVLATSYTISQGIKKMGKVDLIICGKQTTDGDTAQVGPEVAEFLDIPHVTNVTKLIEVKDESIVVEIDMPNDLQVCEIEYPCLITVEKDIFQPRLPSFKLKLNTKDREIPVYSLDDFEDKNENNYGLNGSPTQVVRIFPPKPNTDKNIVRGNADELSFALVNKLEELKLV | not failed
11 | MEILYIKGDATAPIGSGVKVITHICNDIGGWGKGFVLALSKKWKMPEEAYRQWYKSQEEFTLGAVQFVNVENKLYVANMIGQHGIYKDSKGLPPIRYDAVRQCLKEVALFTIAHKASVHMPRIGCGLAGGKWELMEQIIKEELITKEIAVTVYDL | not failed
12 | MEIMKKQNSQINEINKDEIFVVVPAFNEEKMIGETLKNLKKEGYKNIVVVDDGSMDKTSEIAKKEGVIVCRHILNRGLGGALGTGIKCALLYKPKIIITFDADGQHHPKDVEKVVKPVLFEGYDMAIGSRMMDKNELKNMPLVKRIGNFGLNFITYLMGGYFVTDSQSGLRAFSYEAAKKIIGDLKSDRYEVSSEFIILAKKHGLKLKEVPIKTIYTEYSMSRGTNVITGFKILFKLIMQKIF | failed
13 | MEIQIVTGFLGAGKTTFLNRYLPLLSGKTVVIENEFGDIGIDGDRIQEDIPVREIFAGCICCSLAMDFRKGIKEIAENFHPDRILIEPSGVGRLTDIVKACQMAREREKVSLQITKLIAIVDMASFEEYIEGFGAFYQDQIERAGLLLLSHVEAENKAQKEIIIGRLKELNPDAILYDGDWRQLENEELLKLLEEAPDYDEDARRDAAFAALPADKVFSSVSFMDLPQMRIEDLEAIMKALEKEEYGYILRAKGWIETMEKGLVHFDFTPTVSKYREEKNPAGTGGEAVVIGCGLNQAALEMLFRRKNILEHHHHHH | not failed
14 | MEISEYFKDWMELYKKNAIDEMTYKGYEQTLKYLKTYMPNVLISEITASSYQRALNKFAETHAKASTKGFHTRVRASIQPLIEEGRLQKDFTTRAVVKGLEHHHHHH | not failed
15 | MEITKIRGTLPSITYWNSTTPIKYTYNGTTYTGYMGNYWSDYNGTDSDGDGIGDTSYTVPNDLGTDNHPLMQPFENYNLEHHHHHH | failed
16 | MEITPKRYWRRWRGYEKLDGSSETTSGRRKGKRVKMDPTRKKRFWRIKIVPKLRILKTASPKKFLVWLRDSYVKMMMRLANSRVVGSSGYGGSGFGSGQMKEYDEKMLVEIYKSILMVQAQGNLVHRDTPNNNLKLPSEPAVVSVVSSVVTC | failed
17 | MEKALTKVTSFKVGSSWISKKAKEELSNITNDLTTFSSTVEEKAKWIFNKLKGKPLKSLPDLLKEYNLPPGLFPQNIICYEFDETKNKLTVFFSSPCEVTFKDGSAIRYATRVKGILLRGKLMGVEGMKTKVLVWVKVTTISVESSKSDKLWFTAGVKKSRSKDVYDTPHDAIKVIGEF | failed
18 | MEKASSPEKWLAKVSVTLTKAKPDEIWPLFTDFFNLHKWLPTLATCHGVHGNNGEQGCIRFCSGFSIGSNGVDSAARWSKEKLVAVNPVERVMRYEIVESNTGFESYVSTVKILPRGEDGCVIEWSFTVDPVRGLSLENLVKKYEKALEIITKNMEEDALRRRESSS | failed
19 | MEKEKKEGWAHPEAAEKYAQTADIIIPERKEILSIISKAAIDLGPMDPKIIDLGCGLGDVTAEILKLKLQADVLMIDFSDEMIRRSSERFRDNKNITVVKRDLNQGILDITEDRGFDAVVSCFSIHHVEFENRIKLYSDIRKLLKEQGLFINGDLFREDSPAIDQWEFNNRIFSLMIQLKEKLGQEWTFEELKLNRLENSQKMGDKPGTIWETFHDMKAAGFRHVDCLWKSRNLAIMAATKP | failed
20 | MEKFKYSLLVLFGACSYGILSTIFKLGFINGFSAHQLLGGQYVFGWIGLFLLVLFFSRHKVTKKQFFSLLTVGTTMSMTGIFYAISVEELPASIAVVLLFQFTWIGVIIEAIANRTFPSRDKIISILILFAGTLFAGGVFEGLGQSFSTKGIIFGLLAAVSFSFYVFASGRVATDVPPYTKSFLMTTSATLIVCLFFPPTFLTDGALQAGLWKYAFFLGLFGVVVPVICFSIGVPKVGTGLGTILGAAELPTAIIASITLVHEVVTFMQWIGIIFILVGIFIPQLLTARKERKQNRVHSA | failed
21 | MEKFTLSRIINIIMFLYILSIYLFTFRDGLNSISNFLALTFIAAIWSNVLLTRKKIVFNKFLFIYFLFILVCFVSVFFAINQSIAVSKIKTIILIYFLMISLVNYIDTFEKLRSFLLSFVYSGFITGVYILASSDFSQVTRYGSELGNVNSIGMIIGISSIFCFYFIIEEKKYLLYTPIMLINIFVVFLTGSRKALLFVVLTIIAILLIQQKAGIKGKIKALIGILVTLVISLYVIFNVELLYTIIGVRMEHLFSYILGKGANEGSINIRANMIDMGLDWFQERPITGYGIDNFRSLYGIEAIGGEFTYSHNNLVELLVGIGIIGTFLFYLTHFIVLKGLYKESKKNQKSALCYSFIAIIGIYIILSVGLIYYYDKHISMILAIGSIIYKIGKPSGEELTQKTLE | failed
22 | MEKKPWEEDISIEEFKKSLNKDKITNLIIKRRWNKGKSTYHLSFNGDFEVVTKKPSTKYVTHKQLDQKLKEFKQDLMVELHDTFATKADLRDSEARINQKLEALVQVVLLHGEQINKLTQIVEKQGEQIRELQVEQKAQRQEFNARMDRLENLLVESIESTNKRFDSIEGRLDSMDSRLDSMENRLDSIEGRLDSVEGRLDSVEGRLDSMENRLDSMETRLDKIDPPK | failed
23 | MEKKVGTDRVKRGMAQMQKGGVIMDVVNAEQAKIAEEAGAVAVMALERVPSDIRAAGGVARMADPRIVEEVMNAVSIPVMAKARIGHITEARVLEAMGVDYIDESEVLTPADDEFHLLKSDFTVPFVCGCRDIGEALRRIGEGAAMLRTKGEPGTGNIVEAVRHMRQVNGQIRQIASMTDDELMVAAKNFGAPYELVKEIKTLGKLPVVNFAAGGVATPADAALMMELGADGVFVGSGIFKSDNPAKFASAIVQATTYYTDYELIGKLSKELGSPMKGIEMSRLNPEDRMQDRSF | failed
